Target: dSpCas9 ::KQ KQ insertion (Streptococcus pyogenes) (UniProt Q99ZW2)
Experiment: cell_activity
Settings: TGG PAM; half the GFP-positive fraction of SpCas9

Chain of UniProt Q99ZW2 (Q99ZW2 whole entry): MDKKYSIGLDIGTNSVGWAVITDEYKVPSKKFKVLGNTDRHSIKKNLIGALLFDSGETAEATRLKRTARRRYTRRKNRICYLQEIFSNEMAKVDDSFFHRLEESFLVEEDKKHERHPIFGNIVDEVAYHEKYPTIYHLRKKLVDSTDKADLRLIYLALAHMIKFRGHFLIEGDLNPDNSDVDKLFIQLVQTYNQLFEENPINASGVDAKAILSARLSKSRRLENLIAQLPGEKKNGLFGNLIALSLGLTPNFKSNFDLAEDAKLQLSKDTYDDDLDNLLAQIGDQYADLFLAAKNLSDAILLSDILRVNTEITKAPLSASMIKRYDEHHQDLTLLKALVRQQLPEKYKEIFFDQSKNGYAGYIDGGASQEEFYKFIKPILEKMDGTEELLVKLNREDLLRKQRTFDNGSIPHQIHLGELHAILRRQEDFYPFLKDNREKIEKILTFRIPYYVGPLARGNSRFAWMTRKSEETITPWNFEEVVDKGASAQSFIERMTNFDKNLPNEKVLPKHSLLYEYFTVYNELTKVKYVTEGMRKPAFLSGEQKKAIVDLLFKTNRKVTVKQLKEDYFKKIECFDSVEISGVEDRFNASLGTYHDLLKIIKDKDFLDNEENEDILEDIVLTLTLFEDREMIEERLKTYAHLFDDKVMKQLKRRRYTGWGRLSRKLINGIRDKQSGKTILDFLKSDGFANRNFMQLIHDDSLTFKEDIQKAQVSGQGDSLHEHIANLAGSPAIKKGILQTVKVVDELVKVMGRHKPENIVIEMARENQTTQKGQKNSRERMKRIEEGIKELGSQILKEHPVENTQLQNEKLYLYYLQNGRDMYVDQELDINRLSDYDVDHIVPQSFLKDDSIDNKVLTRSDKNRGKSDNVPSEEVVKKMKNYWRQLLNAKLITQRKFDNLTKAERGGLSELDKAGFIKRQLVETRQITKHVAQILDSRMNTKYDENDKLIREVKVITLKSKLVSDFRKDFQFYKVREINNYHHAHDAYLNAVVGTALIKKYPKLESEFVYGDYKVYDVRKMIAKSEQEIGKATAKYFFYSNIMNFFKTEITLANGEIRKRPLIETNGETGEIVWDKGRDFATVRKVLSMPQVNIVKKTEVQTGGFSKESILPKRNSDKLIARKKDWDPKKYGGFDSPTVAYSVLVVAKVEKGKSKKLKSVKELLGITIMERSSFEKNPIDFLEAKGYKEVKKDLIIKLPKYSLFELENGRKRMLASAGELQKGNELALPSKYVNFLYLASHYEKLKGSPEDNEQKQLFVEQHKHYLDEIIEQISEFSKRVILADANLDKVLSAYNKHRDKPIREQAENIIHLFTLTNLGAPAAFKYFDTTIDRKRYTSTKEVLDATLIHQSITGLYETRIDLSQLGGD

## CGAAAGGUUUUGCACUCGAC / CGAAAGGTTTTGCACTCGACTGG / CCAGTCGAGTGCAAAACCTTTCG [PAM-SCANR sgRNA spacer ; PAM-SCANR protospacer + TGG PAM]
  binding signal (fraction of SpCas9 GFP+ cells): 0.5

From patent US20200332271
